The target of this assay is VEGF:sFlk-1 complex (human; mouse) (UniProt P15692). Description: capture ELISA: biotinylated sFlk-1 complexed with VEGF titrated onto wells coated with irrelevant IgM, concentration giving 50% maximal binding; extrapolated value.
VEGF:sFlk-1 complex (human; mouse), sequence (P15692 other isoform, or with tags, fused parts or gaps limits assumed, chain 1 of 2): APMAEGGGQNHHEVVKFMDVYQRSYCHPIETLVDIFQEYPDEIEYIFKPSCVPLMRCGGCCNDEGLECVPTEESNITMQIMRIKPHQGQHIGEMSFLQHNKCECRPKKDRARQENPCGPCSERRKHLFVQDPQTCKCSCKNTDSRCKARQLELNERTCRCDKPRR
VEGF:sFlk-1 complex (human; mouse), sequence (P35918 20-762 limits assumed, chain 2 of 2, further chain): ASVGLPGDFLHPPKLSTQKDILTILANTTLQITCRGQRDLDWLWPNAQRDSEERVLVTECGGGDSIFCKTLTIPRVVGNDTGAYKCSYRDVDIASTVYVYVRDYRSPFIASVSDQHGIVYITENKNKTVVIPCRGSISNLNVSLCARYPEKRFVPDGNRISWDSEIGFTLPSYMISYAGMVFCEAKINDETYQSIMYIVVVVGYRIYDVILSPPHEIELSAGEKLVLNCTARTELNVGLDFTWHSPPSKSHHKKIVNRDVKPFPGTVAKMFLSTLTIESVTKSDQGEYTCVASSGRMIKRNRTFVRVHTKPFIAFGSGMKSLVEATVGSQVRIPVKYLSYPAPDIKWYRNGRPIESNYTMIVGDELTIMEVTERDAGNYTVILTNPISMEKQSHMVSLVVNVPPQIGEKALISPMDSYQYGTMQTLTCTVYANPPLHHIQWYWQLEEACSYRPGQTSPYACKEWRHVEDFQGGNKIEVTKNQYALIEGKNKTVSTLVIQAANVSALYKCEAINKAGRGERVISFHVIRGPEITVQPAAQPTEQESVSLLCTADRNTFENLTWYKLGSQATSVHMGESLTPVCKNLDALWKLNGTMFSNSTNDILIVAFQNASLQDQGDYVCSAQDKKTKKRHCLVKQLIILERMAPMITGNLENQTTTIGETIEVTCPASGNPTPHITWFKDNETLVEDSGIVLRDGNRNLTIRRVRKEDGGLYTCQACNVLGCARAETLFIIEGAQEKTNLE

“irrelevant IgM (negative control of Table 2) (antibody)”: the EC50 is 600 nM.

The values above are taken from patent US20030175276A1.
